Test results published in paper PMC7199859 (The Journal of Cell Biology, 2020).
Values belong to the molecule of their own block, whether it stands above or below them.

Experiments:
[1] = target: GAS2L1 S352A (Bio-GFP-tagged) (human) (UniProt Q99501); test: pull-down
[2] = target: GAS2L1 S352D (Bio-GFP-tagged) (human) (UniProt Q99501); test: pull-down
[3] = target: T1, His6-CH (recombinant GAS2L1 CH domain, His6 tagged) (human, UniProt Q99501 1-196); test: pull-down
T1 sequence (looked up): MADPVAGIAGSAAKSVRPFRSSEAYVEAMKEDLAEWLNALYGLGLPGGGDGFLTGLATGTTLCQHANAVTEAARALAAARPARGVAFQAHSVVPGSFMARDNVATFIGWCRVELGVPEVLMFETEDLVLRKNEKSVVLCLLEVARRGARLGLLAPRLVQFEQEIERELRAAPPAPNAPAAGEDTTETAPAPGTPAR

[4] = target: taxol-stabilized microtubules from porcine brain α/β-tubulin (porcine) (UniProt P02550); test: co-sedimentation

actin-binding activity relative to WT GAS2L1 [1]: 62 % lower | actin-binding activity relative to WT GAS2L1 [2]: 46 % higher
Molecule: actin (endogenous, HEK293T; detected with anti-β-actin) (from UniProt P60709 1-375) (natural protein)

binding result [3]: binds
B1: His6-FLAG-GAR (recombinant GAS2L1 GAR protein, 197-300) (domain or fragment, human, UniProt Q99501 197-300, looked up)
chain: GPRMTPSDLRNLDELVREILGRCTCPDQFPMIKVSEGKYRVGDSSLLIFVRVLRSHVMVRVGGGWDTLEHYLDKHDPCRCSSTAHRPPQPRVCTFSPQRVSPTT

microtubule-binding activity relative to the GAR protein [4]: 47 % lower
B2: His6-FLAG-CH-GAR (recombinant GAS2L1 1-300) (domain or fragment)
chain: MADPVAGIAGSAAKSVRPFRSSEAYVEAMKEDLAEWLNALYGLGLPGGGDGFLTGLATGTTLCQHANAVTEAARALAAARPARGVAFQAHSVVPGSFMARDNVATFIGWCRVELGVPEVLMFETEDLVLRKNEKSVVLCLLEVARRGARLGLLAPRLVQFEQEIERELRAAPPAPNAPAAGEDTTETAPAPGTPARGPRMTPSDLRNLDELVREILGRCTCPDQFPMIKVSEGKYRVGDSSLLIFVRVLRSHVMVRVGGGWDTLEHYLDKHDPCRCSSTAHRPPQPRVCTFSPQRVSPTT
